Measurements taken from PMC4350099.
One block for each substance: values may come before it.

Biological target: 14-3-3ζ (UniProt P63104)
Test: GST pull-down from co-transfected cells
Conditions: reference: wild type

Substance: Notch4 (Notch4-ICD; Notch4-ΔhN4) ICD (from UniProt Q99466) S1865A
binding against the reference (sites S1865): weaker

Substance: Notch4 (Notch4-ICD; Notch4-ΔhN4) ICD (from UniProt Q99466) S1917A
binding against the reference (sites S1917): weaker

Next, values leading:

binding against the reference (sites S1847): weaker
Substance: Notch4 (Notch4-ICD; Notch4-ΔhN4) ICD (from UniProt Q99466) S1847A

binding against the reference (sites S1495): weaker
Substance: Notch4 (Notch4-ICD; Notch4-ΔhN4) ICD (from UniProt Q99466) S1495A

binding against the reference (sites S1495,S1847,S1865,S1917): lost
Substance: Notch4 (Notch4-ICD; Notch4-ΔhN4) ICD (from UniProt Q99466) 4XA (S1495/1847/1865/1917A)
